Experimental data reported in the supplement of paper PMC10126150.
± gives the standard deviation of the averaged measurements.

Test system: ATP
Test: switch fluorescence ratio, 500 uM ATP over buffer (Cy3 cluster intensity, sum of 5 cycles each) (fold (ratio)); higher = stronger signal-on switching upon ATP binding; sequences stand for … in TCGTCGGCAGCGTCAGATGTGTATAAGAGACAGTTTTTTTTTTTTTTTTTTTTTTTTT…TC
Conditions: aptamer strand: ATP DNA aptamer (quencher-CACCTGGGGGAGTATTGCGGAGGAAGG + anchor), 100 nM annealed; ATP concentration: 500 uM
Method in brief: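 Exposure to 500 uM ATP lasted 15 min at 22 °C before imaging, and a selection-buffer image was taken beforehand, for Cy3-labelled switching-strand clusters on a modified Illumina MiSeq flow-cell annealed to 100 nM quencher-labelled ATP aptamer. Five buffer/ATP cycles were run with NaOH stripping and re-annealing between them. The fluorescence ratio per cluster is summed target-cycle over summed buffer-cycle Cy3 intensity, averaged per switch-domain sequence. Clusters outside 100-1000 RFU were excluded.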

With GGGTATTACG the switch fluorescence ratio was 0.975 ± 0.023.
Sequence GGGTATTTAG has a switch fluorescence ratio of 0.983 ± 0.033.
GGGTCAAGGG gave a switch fluorescence ratio of 0.979 ± 0.019.
GGGTCAGGAT showed a switch fluorescence ratio of 0.968 ± 0.019.
For GGGTCAGGGA, the switch fluorescence ratio was 1.01 ± 0.065.
GGGTCAGTGT gave a switch fluorescence ratio of 0.952 ± 0.018.
Sequence GGGTCATGAT has a switch fluorescence ratio of 1.01 ± 0.021.
GGGTCCTGGC was tested, and the switch fluorescence ratio was 0.985 ± 0.037.
In the case of GGGTCCTTTT, the switch fluorescence ratio is reported as 1 ± 0.021.
GGGTCGAGGG was tested, and the switch fluorescence ratio was 0.986 ± 0.027.
With GGGTCGCGCC the switch fluorescence ratio was 1.01 ± 0.046.
GGGTCGCGGG showed a switch fluorescence ratio of 0.9946 ± 0.0024.
For GGGTCGGCAC, the switch fluorescence ratio was 0.968 ± 0.035.
GGGTCGGGTG showed a switch fluorescence ratio of 1.03 ± 0.042.
With GGGTCGTAGC the switch fluorescence ratio was 1.01 ± 0.037.
Work on GGGTCTACA yielded a switch fluorescence ratio of 0.9714 ± 0.0025.
With GGGTCTCATT the switch fluorescence ratio was 0.981 ± 0.022.
With GGGTCTGTGG the switch fluorescence ratio was 0.9812 ± 0.0062.
With GGGTCTTGAC the switch fluorescence ratio was 0.9858 ± 0.0045.
GGGTCTTGAT showed a switch fluorescence ratio of 0.9675 ± 0.0047.
For GGGTCTTTGA, the switch fluorescence ratio was 1.03 ± 0.041.
Work on GGGTGAAGGA yielded a switch fluorescence ratio of 0.989 ± 0.042.
GGGTGACCAC showed a switch fluorescence ratio of 0.986 ± 0.0044.
GGGTGACTTA showed a switch fluorescence ratio of 0.978 ± 0.04.
GGGTGAGATT showed a switch fluorescence ratio of 1.02 ± 0.015.
GGGTGAGTCG showed a switch fluorescence ratio of 1.02 ± 0.037.
With GGGTGAGTGG the switch fluorescence ratio was 1.01 ± 0.021.
GGGTGATAGA was tested, and the switch fluorescence ratio was 1.01 ± 0.039.
Sequence GGGTGCACAC has a switch fluorescence ratio of 1.09 ± 0.095.
GGGTGCAGGG was tested, and the switch fluorescence ratio was 0.9932 ± 0.0059.
For GGGTGCATCG, the switch fluorescence ratio was 1.004 ± 0.0046.
In the case of GGGTGCATTG, the switch fluorescence ratio is reported as 1.03 ± 0.021.
With GGGTGCGCGA the switch fluorescence ratio was 1.04 ± 0.041.
For GGGTGCGGCA, the switch fluorescence ratio was 0.998 ± 0.019.
GGGTGCGGTT was tested, and the switch fluorescence ratio was 1.011 ± 0.01.
Sequence GGGTGCTCGG has a switch fluorescence ratio of 1 ± 0.019.
GGGTGCTGCG gave a switch fluorescence ratio of 1.01 ± 0.037.
Work on GGGTGCTGTT yielded a switch fluorescence ratio of 1.02 ± 0.036.
Work on GGGTGGCAGG yielded a switch fluorescence ratio of 1.01 ± 0.013.
GGGTGGCCAA showed a switch fluorescence ratio of 0.981 ± 0.012.
Sequence GGGTGGGCCC has a switch fluorescence ratio of 0.995 ± 0.041.
Work on GGGTGGGCCT yielded a switch fluorescence ratio of 0.989 ± 0.042.
With GGGTGGGGGA the switch fluorescence ratio was 1.03 ± 0.028.
GGGTGGGGTG gave a switch fluorescence ratio of 1 ± 0.018.
With GGGTGGGTAT the switch fluorescence ratio was 1 ± 0.027.
With GGGTGGTCGG the switch fluorescence ratio was 0.978 ± 0.032.
Sequence GGGTGTAGGA has a switch fluorescence ratio of 1.03 ± 0.065.
For GGGTGTATTG, the switch fluorescence ratio was 1.01 ± 0.044.
Sequence GGGTGTGAGA has a switch fluorescence ratio of 1.04 ± 0.03.
With GGGTGTTGTA the switch fluorescence ratio was 1 ± 0.055.
For GGGTTAAAGT, the switch fluorescence ratio was 0.994 ± 0.022.
GGGTTAAATG showed a switch fluorescence ratio of 0.989 ± 0.028.
With GGGTTAAGAG the switch fluorescence ratio was 1.01 ± 0.02.
GGGTTAATGA showed a switch fluorescence ratio of 1 ± 0.048.
With GGGTTAATGT the switch fluorescence ratio was 1.01 ± 0.061.
GGGTTACTGG was tested, and the switch fluorescence ratio was 1.002 ± 0.0021.
GGGTTAGACG gave a switch fluorescence ratio of 1.01 ± 0.011.
GGGTTAGAGT showed a switch fluorescence ratio of 0.993 ± 0.025.
For GGGTTAGATT, the switch fluorescence ratio was 0.993 ± 0.06.
GGGTTATAGT was tested, and the switch fluorescence ratio was 1.01 ± 0.017.
GGGTTATCAC gave a switch fluorescence ratio of 0.984 ± 0.0095.
With GGGTTATGAG the switch fluorescence ratio was 0.977 ± 0.06.
GGGTTATGGG was tested, and the switch fluorescence ratio was 1.005 ± 0.008.
GGGTTATTGT gave a switch fluorescence ratio of 1 ± 0.016.
In the case of GGGTTCAAAC, the switch fluorescence ratio is reported as 1 ± 0.039.
GGGTTCAATC was tested, and the switch fluorescence ratio was 1.04 ± 0.014.
With GGGTTCAGGC the switch fluorescence ratio was 1.05 ± 0.059.
With GGGTTCCGGG the switch fluorescence ratio was 1.02 ± 0.021.
GGGTTCGTTC showed a switch fluorescence ratio of 0.989 ± 0.054.
GGGTTCTAGG was tested, and the switch fluorescence ratio was 0.999 ± 0.043.
GGGTTGAAGA showed a switch fluorescence ratio of 0.971 ± 0.04.
GGGTTGAATA showed a switch fluorescence ratio of 0.953 ± 0.056.
GGGTTGCCAG showed a switch fluorescence ratio of 0.997 ± 0.025.
GGGTTGCCGT was tested, and the switch fluorescence ratio was 0.977 ± 0.036.
In the case of GGGTTGGAAG, the switch fluorescence ratio is reported as 1.02 ± 0.067.
GGGTTGGATT was tested, and the switch fluorescence ratio was 0.991 ± 0.023.
In the case of GGGTTGGCTC, the switch fluorescence ratio is reported as 0.994 ± 0.041.
GGGTTGGGAC gave a switch fluorescence ratio of 1.01 ± 0.051.
With GGGTTGGGTG the switch fluorescence ratio was 1.01 ± 0.042.
GGGTTGGTGT gave a switch fluorescence ratio of 0.978 ± 0.015.
Sequence GGGTTGGTTG has a switch fluorescence ratio of 0.9929 ± 0.0052.
Sequence GGGTTGTGCT has a switch fluorescence ratio of 0.953 ± 0.015.
GGGTTGTTTG was tested, and the switch fluorescence ratio was 0.992 ± 0.036.
In the case of GGGTTTAAGG, the switch fluorescence ratio is reported as 1.02 ± 0.015.
GGGTTTACAA showed a switch fluorescence ratio of 0.989 ± 0.029.
GGGTTTACGG was tested, and the switch fluorescence ratio was 1.02 ± 0.017.
With GGGTTTACTT the switch fluorescence ratio was 0.99844 ± 0.00094.
Sequence GGGTTTATGT has a switch fluorescence ratio of 0.984 ± 0.029.
In the case of GGGTTTATTG, the switch fluorescence ratio is reported as 0.998 ± 0.049.
For GGGTTTCGAC, the switch fluorescence ratio was 1.02 ± 0.013.
Sequence GGGTTTCGCG has a switch fluorescence ratio of 1.01 ± 0.023.
In the case of GGGTTTCGGG, the switch fluorescence ratio is reported as 0.9779 ± 0.0092.
GGGTTTGAAA gave a switch fluorescence ratio of 1.01 ± 0.067.
Work on GGGTTTGGGC yielded a switch fluorescence ratio of 1.01 ± 0.024.
GGGTTTGTGG gave a switch fluorescence ratio of 0.984 ± 0.023.
Work on GGGTTTTCCA yielded a switch fluorescence ratio of 1.01 ± 0.021.
Work on GGGTTTTGGC yielded a switch fluorescence ratio of 1 ± 0.066.
With GGGTTTTTAT the switch fluorescence ratio was 0.989 ± 0.027.
GGGTTTTTGC gave a switch fluorescence ratio of 1.04 ± 0.045.
In the case of GGGTTTTTTA, the switch fluorescence ratio is reported as 0.988 ± 0.022.
